# Test results published in paper PMC6510891, “Functional duplication of Rap1 in methylotrophic yeasts”.
# B1: HANPO4 (SPR) (dsDNA)
# DNA 1: GGGTGGCGGGGTGGCGGGGTGGCGGGGTGGCG
# DNA 2: CGCCACCCCGCCACCCCGCCACCCCGCCACCCCCTCTACGTCCTCCTGCTCC
# Target: T1, HpRap1B (Hansenula polymorpha DL-1, UniProt W1QDN2 1-576)
# T1 sequence: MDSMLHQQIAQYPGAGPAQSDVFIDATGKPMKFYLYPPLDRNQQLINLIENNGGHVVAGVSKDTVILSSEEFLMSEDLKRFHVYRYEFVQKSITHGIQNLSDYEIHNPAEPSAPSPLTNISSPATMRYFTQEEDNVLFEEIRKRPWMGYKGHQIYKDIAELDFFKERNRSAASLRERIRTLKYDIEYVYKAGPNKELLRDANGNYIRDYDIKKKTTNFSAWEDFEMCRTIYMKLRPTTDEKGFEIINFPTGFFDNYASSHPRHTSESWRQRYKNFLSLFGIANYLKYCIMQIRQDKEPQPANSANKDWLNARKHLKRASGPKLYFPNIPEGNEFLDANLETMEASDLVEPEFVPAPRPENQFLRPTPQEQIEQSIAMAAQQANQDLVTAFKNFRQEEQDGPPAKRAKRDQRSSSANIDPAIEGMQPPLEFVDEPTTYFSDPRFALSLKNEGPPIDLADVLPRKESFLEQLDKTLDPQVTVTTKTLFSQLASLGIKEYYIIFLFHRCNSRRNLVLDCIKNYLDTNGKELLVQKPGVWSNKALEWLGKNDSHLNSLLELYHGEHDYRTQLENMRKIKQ
# Assay: SPR; kinetic fit; equilibrium Kd 13±3; SPR: 10 mM HEPES-NaOH pH 7.5, 150 mM NaCl, 0.5 mM DTT, 0.05% Tween 20, 1 mg/ml BSA, 0.02 mg/ml salmon sperm DNA; competition 2 nM protein with 20 or 200 nM competitor. EMSA: 20 mM HEPES-NaOH pH 7.5, 50 mM NaCl, 0.2 mg/ml BSA, 5% glycerol, 0.1 mg/ml salmon sperm DNA, room temperature
# Details: protein: recombinant; 3' overhang 20 nt on strand 2
binder,measurement,value
B1,Kd,12 ± 3 nM
